Laboratory results: IntAct's records for PubMed 23770679

B1: Microtubule protein alp7 (Schizosaccharomyces pombe (strain ATCC 38366 / 972)), Q9URY2 (parent)
chain: MSDIVSSSTDYSRRSPSSSSIGTNETDHTGFHEKRQGASSESLIPPAQRSSEESMPAPKLFPKLTSKPNPQLNLKDTLNKRVSDRLQALELNKSFDFSGTPRPMHPISHPLSQHKTPEFKHRKRNVESILTPKNPSLFSSSNAASQRGSLNTAPSNFAYSHSSSLQTSASSRPPVLSNGSFPRQTNTAPLNPPVHLKDNIRNSATPSTSQADIPTQYPINSTQKQQAKYEAEIEGYKAKLAGTYHEISVLQNTIVNVSGQLIAVNDQLQQLRSGKASTSPSTKDTNMRLVEGHNEETLALQRGKYTQEEVDKLIQERMEKVAEDLHAQYSAKHTQKINAFKANYARKYEATIQELQNQIGTAPNAPKISNSNWEEERRALKADNQTLQKQLEKAIQERQDMSDFLNNFKADMAKSDKLLMQQQSQQTGDLETLRLQLQALQEELRVEREERQQLIQMSEDLVIAMDQLNLEQKS
partner: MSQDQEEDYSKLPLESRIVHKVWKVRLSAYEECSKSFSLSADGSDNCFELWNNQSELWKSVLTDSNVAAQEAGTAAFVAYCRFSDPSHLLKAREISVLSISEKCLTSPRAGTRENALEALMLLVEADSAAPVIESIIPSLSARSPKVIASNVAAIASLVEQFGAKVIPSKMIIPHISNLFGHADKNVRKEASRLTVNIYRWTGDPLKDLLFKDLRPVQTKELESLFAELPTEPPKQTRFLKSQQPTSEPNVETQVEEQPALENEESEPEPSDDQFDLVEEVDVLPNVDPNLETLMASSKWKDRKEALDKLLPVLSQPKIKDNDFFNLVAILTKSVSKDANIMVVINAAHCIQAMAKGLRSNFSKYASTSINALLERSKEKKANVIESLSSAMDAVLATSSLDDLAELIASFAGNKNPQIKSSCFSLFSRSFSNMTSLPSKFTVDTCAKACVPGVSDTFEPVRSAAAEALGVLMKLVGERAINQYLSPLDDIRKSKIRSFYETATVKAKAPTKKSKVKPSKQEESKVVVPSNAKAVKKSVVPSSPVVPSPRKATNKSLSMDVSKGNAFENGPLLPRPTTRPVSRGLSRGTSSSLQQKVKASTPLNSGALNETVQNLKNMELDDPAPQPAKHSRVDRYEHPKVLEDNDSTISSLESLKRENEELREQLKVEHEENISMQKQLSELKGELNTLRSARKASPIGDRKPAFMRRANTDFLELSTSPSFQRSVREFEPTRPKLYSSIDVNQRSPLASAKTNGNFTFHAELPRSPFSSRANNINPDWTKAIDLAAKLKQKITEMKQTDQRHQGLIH
B2: Microtubule protein alp7 (Schizosaccharomyces pombe (strain ATCC 38366 / 972)), Q9URY2 (parent)
chain: B1 chain
partner: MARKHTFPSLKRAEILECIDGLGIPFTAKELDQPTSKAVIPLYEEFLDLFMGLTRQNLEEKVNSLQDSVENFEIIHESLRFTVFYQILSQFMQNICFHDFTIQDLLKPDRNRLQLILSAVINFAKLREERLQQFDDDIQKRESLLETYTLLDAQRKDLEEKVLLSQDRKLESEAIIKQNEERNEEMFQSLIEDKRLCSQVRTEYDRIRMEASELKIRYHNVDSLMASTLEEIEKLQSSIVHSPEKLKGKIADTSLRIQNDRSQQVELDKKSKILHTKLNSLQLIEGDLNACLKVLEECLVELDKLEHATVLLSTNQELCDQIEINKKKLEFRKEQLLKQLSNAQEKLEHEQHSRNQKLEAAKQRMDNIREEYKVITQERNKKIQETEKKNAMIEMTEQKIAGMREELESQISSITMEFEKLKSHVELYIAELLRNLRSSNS

Variants of: B1
Conditions: with alp14_schpo alp14, O94534

effect of a mutation on the interaction	Variant
disrupting interaction strength	L461A

Variants of: B2
Conditions: with nuf2_schpo nuf2, Q10173

effect of a mutation on the interaction	Variant
disrupting interaction strength	S248A;T297A;T351A;S402A
